Values quoted from earlier work as cited in publication PMC4517114.
Read-outs that look alike come from different tables or passages of the source.

Legend:
[1] = target: MAGI-1 PDZ (Homo sapiens) (UniProt Q96QZ7)
[2] = target: MAGI-1 PDZ (Homo sapiens) (UniProt Q96QZ7); remark: listed apart in the source

Chain of UniProt Q96QZ7 (Q96QZ7 472-554): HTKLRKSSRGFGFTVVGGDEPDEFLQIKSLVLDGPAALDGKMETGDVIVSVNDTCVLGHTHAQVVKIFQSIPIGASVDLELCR

Row | Substance | Kd [1] | Kd [2]
1 | HPV16 E6 (from UniProt P03126) | 3000 nM | 
2 | HPV18 E6 (from UniProt P06463) |  | 1500 nM
